Laboratory results from patent publication US20260242839A1, “GLYCOSIDE PRODUCT BIOSYNTHESIS AND RECOVERY” (Manus Bio Inc., priority 2023, published 2026).
Substitutions are numbered along the chain they refer to. Numbers in names are those of the source.

B1: SEQ ID NO: 76: CeUGT_1,6.2 (Coffea eugenioides) (protein, listed as Coffea sp.)
chain: MAENHATFNVLMLPWLAHGHVSPYLELAKKLTARNFNVYLCSSPATLSSVRSKLTEKFSQSIHLVELHLPKLPELPAEYHTTNGLPPHLMPTLKDAFDMAKPNFCNVLKSLKPDLLIYDLLQPWAPEAASAFNIPAVVFISSSATMTSFGLHFFKNPGTKYPYGNAIFYRDYESVFVENLTRRDRDTYRVINCMERSSKIILIKGFNEIEGKYFDYFSCLTGKKVVPVGPLVQDPVLDDEDCEIMQWLNKKEKVSTVFVSFGSEYFLSKKDMEEIAHGLELSNVDFIWVVRFPKGENIVIEETLPKGFFERVGERGLVVNGWAPQAKILTHPNVGGFVSHCGWNSVMESMKFGLPIIAMPMHLDQPINARLIEEVGAGVEVLRDSKGKLHRERMAETINKVMKEASGESVRKKARELQEKMDLKGDEEIDDVVKELVQLCATKNKRNGLHYY
B2: ins_A2_T3_RR: SEQ ID NO: 14 with insertion of Arg-Arg between A2 and T3 (protein)
chain: MARRTKNSSGMSLAERFWLTLSRSSLVVGRSCVEFEPETVPLLSTLRGKPITFLGLMPPLHEGRREDGEDATVRWLDAQPAKSVVYVALGSEVPLGVEKVHELALGLELAGTRFLWALRKPTGVSDADLLPAGFEERTRGRGVVATRWVPQMSILAHAAVGAFLTHCGWNSTIEGLMFGHPLIMLPITGDQGPNARLIEAKNAGLQVARNDGDGSFDREGVAAAIRAVAVEEESSKVFQAKAKKLQEIVADMACHERYIDGFIQQLRSYKDDSGYSSSYAAAAGMHVVICPWLAFGHLLPCLDLAQRLASRGHRVSFVSTPRNISRLPPVRPALAPLVAFVALPLPRVEGLPDGAESTNDVPHDRPDMVELHRRAFDGLAAPFSEFLGTACADWVIVDSFHHWAAAAALEHKVPCAMMLLGSAEMIASIADERLEHAETESPAAAGQGRPAAAPTFEVARMKLIR
B3: S308Q: mutation to UGT enzyme of SEQ ID NO: 14 (protein)
chain: MATKNSSGMSLAERFWLTLSRSSLVVGRSCVEFEPETVPLLSTLRGKPITFLGLMPPLHEGRREDGEDATVRWLDAQPAKSVVYVALGSEVPLGVEKVHELALGLELAGTRFLWALRKPTGVSDADLLPAGFEERTRGRGVVATRWVPQMSILAHAAVGAFLTHCGWNSTIEGLMFGHPLIMLPITGDQGPNARLIEAKNAGLQVARNDGDGSFDREGVAAAIRAVAVEEESSKVFQAKAKKLQEIVADMACHERYIDGFIQQLRSYKDDSGYSSSYAAAAGMHVVICPWLAFGHLLPCLDLAQRLAQRGHRVSFVSTPRNISRLPPVRPALAPLVAFVALPLPRVEGLPDGAESTNDVPHDRPDMVELHRRAFDGLAAPFSEFLGTACADWVIVDSFHHWAAAAALEHKVPCAMMLLGSAEMIASIADERLEHAETESPAAAGQGRPAAAPTFEVARMKLIR
B4: S42E: mutation to UGT enzyme of SEQ ID NO: 14 (protein)
chain: B3 chain with S42E, Q308S
B5: T453M: mutation to UGT enzyme of SEQ ID NO: 14 (protein)
chain: B3 chain with Q308S, T453M
B6: L203I: mutation to UGT enzyme of SEQ ID NO: 14 (protein)
chain: B3 chain with L203I, Q308S
B7: L58S: mutation to UGT enzyme of SEQ ID NO: 14 (protein)
chain: B3 chain with L58S, Q308S
B8: A79P: mutation to UGT enzyme of SEQ ID NO: 14 (protein)
chain: B3 chain with A79P, Q308S
B9: G94T: mutation to UGT enzyme of SEQ ID NO: 14 (protein)
chain: B3 chain with G94T, Q308S
B10: H400Y: mutation to UGT enzyme of SEQ ID NO: 14 (protein)
chain: B3 chain with Q308S, H400Y
B11: M250D_A251E_C252V: mutation to UGT enzyme of SEQ ID NO: 14 (protein)
chain: B3 chain with M250D, A251E, C252V, Q308S
B12: S323A: mutation to UGT enzyme of SEQ ID NO: 14 (protein)
chain: B3 chain with Q308S, S323A
B13: S123D: mutation to UGT enzyme of SEQ ID NO: 14 (protein)
chain: B3 chain with S123D, Q308S
B14: S151R: mutation to UGT enzyme of SEQ ID NO: 14 (protein)
chain: B3 chain with S151R, Q308S
B15: E254D: mutation to UGT enzyme of SEQ ID NO: 14 (protein)
chain: B3 chain with E254D, Q308S
B16: T186M: mutation to UGT enzyme of SEQ ID NO: 14 (protein)
chain: B3 chain with T186M, Q308S
B17: F51W: mutation to UGT enzyme of SEQ ID NO: 14 (protein)
chain: B3 chain with F51W, Q308S
B18: A130D: mutation to UGT enzyme of SEQ ID NO: 14 (protein)
chain: B3 chain with A130D, Q308S
B19: P56A: mutation to UGT enzyme of SEQ ID NO: 14 (protein)
chain: B3 chain with P56A, Q308S
B20: S266R: mutation to UGT enzyme of SEQ ID NO: 14 (protein)
chain: B3 chain with S266R, Q308S
B21: V336I_F338L: mutation to UGT enzyme of SEQ ID NO: 14 (protein)
chain: B3 chain with Q308S, V336I, F338L
B22: W401F: mutation to UGT enzyme of SEQ ID NO: 14 (protein)
chain: B3 chain with Q308S, W401F

Tested on: Mog. IIE or Mog. IE
Assay: branched glycosylation reactions by cells expressing UGT enzymes
Format: cell-based, E. coli
Conditions: Mog. IIE or Mog. IE fed; 37° C., 48 hr; LC-MS/MS
Experimental: Mog. IIE or Mog. IE was fed to cells expressing various UGT enzymes. Reactions were incubated at 37° C. for 48 hr. Products were quantified by LC-MS/MS with authentic standards of each compound. “Indirect” evidence means that consumption of substrate was observed.

Molecule	C3 1-2	C3 1-6	C24 1-2	C24 1-6
B1	No	Yes	No	Yes

Tested on: steviol glycoside
Assay: steviol glycoside bioconversion by E. coli expressing individual mutations of UGT SEQ ID NO: 14
Format: cell-based
Conditions: fold improvement of % conversion vs parent UGT SEQ ID NO: 14; stevia leaf extract and glucose fed; 37° C., 48 hr
Experimental: Fold improvement is with respect to % steviol glycoside conversion of the parent UGT enzyme of SEQ ID NO: 14. The UGT enzyme of SEQ ID NO: 15 has the following mutations from SEQ ID NO: 14: ins_A2_T3_RR, H59P, A238E, L417F. Stevia leaf extract and glucose were fed to the bioconversion strains. Bioconversion took place at 37° C. for 48 hr. Data were quantified by reverse phase LC DAD to quantify conversion of steviol glycosides.
Fold improvement (FI) is with respect to % steviol glycoside conversion.

Molecule	FI %Stevioside→rebE	FI %rebA→rebD
B2	2.4	2.0
B3	1.6	1.6
B4	1.8	1.3
B5	1.7	1.5
B6	1.6	1.5
B7	1.5	1.4
B8	1.4	1.3
B9	1.6	1.4
B10	1.2	1.3
B11	1.5	1.4
B12	1.3	1.3
B13	1.7	1.5
B14	1.6	1.5
B15	1.7	1.5
B16	1.5	1.4
B17	1.7	1.4
B18	1.4	1.3
B19	1.5	1.3
B20	1.4	1.3
B21	1.5	1.4
B22	1.3	1.3
